For orientation: IC50 means the concentration needed to halve the response being measured. As a reminder, the IC80 is the concentration needed for an effect of 80%. A lower IC80 goes with an effect from little substance.

The text below walks through data of patent US20230002480A1.

A value given as a limit tells only on which side of the number the result lay.

Common to all, as to assay: cell-based or functional assay
Assay [1] addresses HIV-1 Env of pseudovirus 235-47 (clade CRF02_AG) (HIV-1).
Assay [2] addresses HIV-1 Env of pseudovirus BJOX010000.06.2 (clade CRF01_AE (T/F)) (HIV-1).
Assay [3] addresses HIV-1 Env of pseudovirus BJOX025000.01.1 (clade CRF01_AE (T/F)) (HIV-1).
The target in assay [4] is HIV-1 Env of pseudovirus BJOX028000.10.3 (clade CRF01_AE (T/F)) (HIV-1).
Assay [5] concerns the target HIV-1 Env of pseudovirus C2101.c01 (clade CRF01_AE) (HIV-1).
The target of assay [6] is HIV-1 Env of pseudovirus CNE5 (clade CRF01_AE) (HIV-1).
Assay [7] has as its target HIV-1 Env of pseudovirus R2184.c04 (clade CRF01_AE) (HIV-1).
Assay [8] addresses HIV-1 Env pseudovirus 191084 B7-19 (HIV-1).
Assay [9] addresses HIV-1 Env pseudovirus 3817.v2.c59 (HIV-1).
Assay [10] deals with HIV-1 Env pseudovirus 6480.v4.c25 (HIV-1).
Assay [11] concerns the target HIV-1 Env pseudovirus 6811.v7.c18 (HIV-1).
Assay [12] addresses HIV-1 Env pseudovirus 6952.v1.c20 (HIV-1).
In assay [13] the target is HIV-1 Env pseudovirus 9004SS_A3_4 (HIV-1).
Assay [14] deals with HIV-1 Env pseudovirus BJOX015000.11.5 (HIV-1).
For assay [15], the target named is HIV-1 Env pseudovirus C1080.c03 (HIV-1).
Assay [16] concerns the target HIV-1 Env pseudovirus R1166.c01 (HIV-1).
Assay [17] addresses HIV-1 Env pseudovirus T257-31 (HIV-1).
Assay [18] concerns the target HIV-1 Env pseudovirus X1632_S2_B10 (HIV-1).

As for 10-1074 (antibody), the IC50, titer in TZM.bl cells in assay [1] was 0.05 mg/L; in assay [2], more than 50 mg/L; in assay [3] it was more than 50 mg/L; in assay [4], more than 50 mg/L; in assay [5], more than 50 mg/L; in [6], more than 50 mg/L. The IC50, titer in TZM.bl cells in assay [7] is more than 50 mg/L. In addition, the IC80, titer in TZM.bl cells is 0.163 mg/L in [1]; more than 50 mg/L in assay [2]; more than 50 mg/L in assay [3]; more than 50 mg/L in [4]; more than 50 mg/L in assay [5]; more than 50 mg/L in assay [6]. The IC80, titer in TZM.bl cells in assay [7] was more than 50 mg/L.
Take 10E8 (antibody): the IC50, titer in TZM.bl cells in [1] turned out to be 0.384 mg/L; in [2] it was 0.341 mg/L; in assay [3], 0.107 mg/L; in assay [4], 0.665 mg/L; in assay [5], 1.92 mg/L; in [6] it was 1.41 mg/L. For the same substance, the IC50, titer in TZM.bl cells in [7] came to 0.272 mg/L. For the same substance, the IC80, titer in TZM.bl cells is 2.07 mg/L in assay [1]; 5.29 mg/L in assay [2]; 6.33 mg/L in [3]; 7.36 mg/L in [4]; 8.26 mg/L in [5]; 9.64 mg/L in assay [6]. For the same substance, in assay [7], the IC80, titer in TZM.bl cells came out at 2.46 mg/L.
Regarding N49P19 (antibody), the IC50 in [8] is 0.357 mg/L; in assay [9] it was more than 50 mg/L; in assay [10] it was 3.04 mg/L; in assay [11], 1.3 mg/L; in assay [12], more than 50 mg/L; in assay [13] it was 0.661 mg/L. In addition, the IC50 was 0.756 mg/L in [14]; 0.682 mg/L in assay [15]; 0.629 mg/L in assay [16]; 0.661 mg/L in assay [17]; more than 50 mg/L in [18]. Besides, the concentration for an effect of 80% (IC80) in [8] is 1.34 mg/L; in assay [9] it was more than 50 mg/L; in [10] it was 28.2 mg/L; in assay [11], 4.71 mg/L; in assay [12], more than 50 mg/L; in [13], 3.09 mg/L. In addition, the IC80 is 3.17 mg/L in assay [14]; 3.05 mg/L in assay [15]; 2.69 mg/L in assay [16]; 3 mg/L in assay [17]; more than 50 mg/L in [18]. Also, the MPI was 100 in [8]; 26 in assay [9]; 87 in assay [10]; 97 in assay [11]; 0 in assay [12]; 100 in [13]. The MPI in assay [14] turned out to be 99; in [15], 100; in assay [16] it was 100; in assay [17] it was 100; in assay [18], 14.
With PG9 (antibody), the IC50, titer in TZM.bl cells in assay [1] amounted to 0.233 mg/L; in [2] it was 0.154 mg/L; in [3] it was 0.144 mg/L; in assay [4], 1.1 mg/L; in [5], 0.034 mg/L; in [6] it was 0.018 mg/L. This substance also registered an IC50, titer in TZM.bl cells in [7] of 0.255 mg/L. Besides, the IC80, titer in TZM.bl cells in [1] amounted to 1.2 mg/L; in assay [2] it was 0.74 mg/L; in assay [3] it was 0.335 mg/L; in [4], 21.5 mg/L; in [5] it was 0.099 mg/L; in assay [6], 0.051 mg/L. The substance further registered an IC80, titer in TZM.bl cells in assay [7] of 1.24 mg/L.
Consider PG16 (antibody), for which the IC50, titer in TZM.bl cells in assay [1] is 0.092 mg/L; in assay [2], 1.2 mg/L; in [3] it was 0.071 mg/L; in assay [4], more than 50 mg/L; in assay [5], 0.012 mg/L; in assay [6], 0.008 mg/L. The substance also registered an IC50, titer in TZM.bl cells in assay [7] of 0.67 mg/L. Besides, the IC80, titer in TZM.bl cells in assay [1] was 4.51 mg/L; in assay [2], more than 50 mg/L; in assay [3] it was more than 50 mg/L; in assay [4] it was more than 50 mg/L; in assay [5], 0.238 mg/L; in [6], 0.033 mg/L. The same substance returned an IC80, titer in TZM.bl cells in [7] of more than 50 mg/L.
